Positions count from the first letter of the chain named. Numbers in names are those of the source.

First the molecules themselves.
B1: target 1 C2A,G17U (mixed)
RNA 1: CACCCGUGCAAAAAUGCAGGGGUCUAAAACUGAGCGGAUAACCUCUCUAUGG
RNA 2: GGGAAUGGAUCCACAUCUACGAAUUCGUACCAUAUAGAGGUUAUCCGCUAACCGAGAUCGGAAGAGCACACGU
B2: target 1 C2U,C4U (mixed)
RNA 1: B1 RNA 1
RNA 2: B1 RNA 2 with U35G, C48U, A50U
B3: target 1 insG 3' of 3,insA 3' of 2 (mixed)
RNA 1: B1 RNA 1
RNA 2: GGGAAUGGAUCCACAUCUACGAAUUCGUACCAUAGAGAGGUUAUCCGCUGCAACCGAGAUCGGAAGAGCACACGU
B4: target 3 insC 3' of 8,insA 3' of 3 (mixed)
RNA 1: CACCCGUGCAAAAUUGCAGGGGUCUAAAACGACCUGAAUAUUUCAGAUCAAA
RNA 2: GGGAAUGGAUCCACAUCUACGAAUUCGUUUUUGAUCUGAAAUAUCUCAGGAUCUGCAGAUCGGAAGAGCACACGU
B5: target 3 insA 3' of 10,insU 3' of 6 (mixed)
RNA 1: B4 RNA 1
RNA 2: B4 RNA 2 with U44A, C45U, A48U, G49A, A51G
B6: target 3 insU 3' of 13,insU 3' of 3 (mixed)
RNA 1: B4 RNA 1
RNA 2: B4 RNA 2 with A40U, U42A, A43U, U44A, C45U, A51U
B7: target 3 U2C,G4U (mixed)
RNA 1: B4 RNA 1
RNA 2: GGGAAUGGAUCCACAUCUACGAAUUCGUUUUUGAUCUGAAAUAUUCAUGCCUGCAGAUCGGAAGAGCACACGU
B8: target 3 G4A,A5U (mixed)
RNA 1: B4 RNA 1
RNA 2: B7 RNA 2 with A47U, U48A, C50U
B9: target 3 insC 3' of 11,insU 3' of 3 (mixed)
RNA 1: B4 RNA 1
RNA 2: B4 RNA 2 with U42C, A43U, U44A, C45U, A51U
B10: target 3 insA 3' of 10,insA 3' of 8 (mixed)
RNA 1: B4 RNA 1
RNA 2: B4 RNA 2 with U44A, C45U, U46A, C47U, A48C, G49A, A51G
B11: target 3 G4C,U21C (mixed)
RNA 1: B4 RNA 1
RNA 2: B7 RNA 2 with U31C, U48C, C50U
B12: target 3 G19U,U22A (mixed)
RNA 1: B4 RNA 1
RNA 2: B7 RNA 2 with U30A, G33U, U48G, C50U
B13: target 3 G3C,G4U (mixed)
RNA 1: B4 RNA 1
RNA 2: B7 RNA 2 with G49C, C50U
B14: target 3 insG 3' of 22,insG 3' of 22 (mixed)
RNA 1: B4 RNA 1
RNA 2: GGGAAUGGAUCCACAUCUACGAAUUCGUUUGGUUGAUCUGAAAUAUUCAGGUCUGCAGAUCGGAAGAGCACACGU
B15: target 3 insA 3' of 14,insG 3' of 2 (mixed)
RNA 1: B4 RNA 1
RNA 2: B4 RNA 2 with U42A, A43U, U44A, C45U, A51U, U52G
B16: target 3 insG 3' of 8,insU 3' of 3 (mixed)
RNA 1: B4 RNA 1
RNA 2: B4 RNA 2 with C45G, A51U
B17: target 3 G4U,U7C (mixed)
RNA 1: B4 RNA 1
RNA 2: B7 RNA 2 with U45C, C50U
B18: target 3 insG 3' of 22,insG 3' of 2 (mixed)
RNA 1: B4 RNA 1
RNA 2: GGGAAUGGAUCCACAUCUACGAAUUCGUUUGUUGAUCUGAAAUAUUCAGGUGCUGCAGAUCGGAAGAGCACACGU
B19: target 3 U21C,U22A (mixed)
RNA 1: B4 RNA 1
RNA 2: B7 RNA 2 with U30A, U31C, U48G, C50U
B20: target 3 U2A,U7G (mixed)
RNA 1: B4 RNA 1
RNA 2: B7 RNA 2 with U45G, U48G, C50A
B21: target 3 A5G,C6A (mixed)
RNA 1: B4 RNA 1
RNA 2: B7 RNA 2 with C46A, A47G, U48G, C50U
B22: target 3 U21A,U22C (mixed)
RNA 1: B4 RNA 1
RNA 2: B7 RNA 2 with U30C, U31A, U48G, C50U
B23: target 3 insU 3' of 11,insG 3' of 2 (mixed)
RNA 1: B4 RNA 1
RNA 2: B4 RNA 2 with A43U, U44A, C45U, A51U, U52G
B24: target 3 C6U,U8A (mixed)
RNA 1: B4 RNA 1
RNA 2: B7 RNA 2 with U44A, C46U, U48G, C50U
B25: target 3 insC 3' of 21,insU 3' of 4 (mixed)
RNA 1: B4 RNA 1
RNA 2: B18 RNA 2 with G31U, U32C, G50U, U51G, G52U
B26: target 3 G4U,A9G (mixed)
RNA 1: B4 RNA 1
RNA 2: B7 RNA 2 with A43G, C50U
B27: target 3 insA 3' of 22,insG 3' of 2 (mixed)
RNA 1: B4 RNA 1
RNA 2: B18 RNA 2 with G31A

For the data set, the target named is T1, EsCas13d, nuclease-dead (Eubacterium siraeum, UniProt B0MS50, R295A;H300A;R849A;H854A).
T1 sequence: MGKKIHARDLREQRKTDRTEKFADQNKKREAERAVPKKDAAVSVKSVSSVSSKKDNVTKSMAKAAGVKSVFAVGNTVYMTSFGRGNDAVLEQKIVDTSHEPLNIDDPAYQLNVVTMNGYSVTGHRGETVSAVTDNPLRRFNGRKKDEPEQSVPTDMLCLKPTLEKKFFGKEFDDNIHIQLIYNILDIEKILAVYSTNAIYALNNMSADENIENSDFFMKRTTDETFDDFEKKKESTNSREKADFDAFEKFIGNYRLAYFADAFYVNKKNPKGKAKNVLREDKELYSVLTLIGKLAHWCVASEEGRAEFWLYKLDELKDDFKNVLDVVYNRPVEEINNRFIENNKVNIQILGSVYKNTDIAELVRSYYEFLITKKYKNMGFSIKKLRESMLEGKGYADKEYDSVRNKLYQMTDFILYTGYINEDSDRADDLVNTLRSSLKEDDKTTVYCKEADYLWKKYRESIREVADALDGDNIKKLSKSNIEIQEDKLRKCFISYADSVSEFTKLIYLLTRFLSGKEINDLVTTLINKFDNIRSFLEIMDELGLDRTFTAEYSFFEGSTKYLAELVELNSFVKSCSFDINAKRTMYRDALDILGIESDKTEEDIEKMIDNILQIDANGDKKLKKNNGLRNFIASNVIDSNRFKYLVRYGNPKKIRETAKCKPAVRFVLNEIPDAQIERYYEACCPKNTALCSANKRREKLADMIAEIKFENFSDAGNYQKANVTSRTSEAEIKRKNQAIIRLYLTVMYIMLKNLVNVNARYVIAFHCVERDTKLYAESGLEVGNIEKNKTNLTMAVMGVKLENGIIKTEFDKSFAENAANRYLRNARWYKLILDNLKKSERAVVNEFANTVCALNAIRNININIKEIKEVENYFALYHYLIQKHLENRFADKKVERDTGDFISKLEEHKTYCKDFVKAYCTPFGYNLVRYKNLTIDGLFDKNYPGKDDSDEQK
The experiment in a line: crRNA (strand 1, pre-loaded); Mg2+; 40 mM Tris-HCl pH 7.5, 150 mM NaCl, 6 mM MgCl2, 1 mM DTT, 0.1% Tween-20, 0.2 mg/ml BSA; 25 C; 10 min per concentration, then washed. As to conditions: tags: His6-TwinStrep-SUMO cleaved; N-terminal SNAP kept (SNAP-Surface 488); label: 3' end held by stalled T7 RNA polymerase.
The term Kd denotes the equilibrium constant for the complex coming apart. A low value points to higher affinity. Molecule B1 registered a Kd of 30.5 ± 2.6 nM.
The same measure for B2: 58 ± 17 nM; for B3: 6.5 ± 0.4 nM.
The same measure for B4: 93 ± 27 nM.
The same measure for B5: 79.5 ± 14.5 nM; for B6: 64.5 ± 20 nM; for B7: 23 ± 5 nM.
Take B8: the affinity, expressed as Kd, was 19.3 ± 2.25 nM.
In turn, B9 registered a Kd of 74.5 ± 33.5 nM.
Molecule B10 displayed a Kd of 110 ± 28 nM.
Next, B11: 60 ± 21 nM; B12: 80 ± 7 nM; B13: 18.3 ± 3.2 nM.
The same measure for B14: 64.5 ± 13.5 nM; for B15: 32.8 ± 3.65 nM; for B16: 85.5 ± 29.5 nM.
B17: the affinity, expressed as Kd, was 120 ± 40 nM.
Next, B18: 61 ± 23 nM; B19: 30.5 ± 7 nM; B20: 62.5 ± 10.5 nM.
Next, B21: 34.1 ± 3.35 nM; B22: 37.3 ± 5.65 nM.
The same measure for B23: 42.5 ± 6 nM.
Consider B24, for which the Kd came out at 50.8 ± 4.85 nM.
Next, B25: around 68.5 nM; B26: 37.5 ± 4 nM.
The same measure for B27: 32.9 ± 4.15 nM.

Values taken from PMC10786891, “Massively parallel profiling of RNA-targeting CRISPR-Cas13d”.
